Measurements as given in US20190077883A1.

Target: GST-tagged human FcRn (human; Schistosoma japonicum) (UniProt P55899)
Test: ELISA pH 6.0, h9C12 variant captured on AdV5 hexon, GST-hFcRn detected with anti-GST-HRP

Chain of GST-tagged human FcRn (human; Schistosoma japonicum) (P55899 24-297, chain 1 of 2): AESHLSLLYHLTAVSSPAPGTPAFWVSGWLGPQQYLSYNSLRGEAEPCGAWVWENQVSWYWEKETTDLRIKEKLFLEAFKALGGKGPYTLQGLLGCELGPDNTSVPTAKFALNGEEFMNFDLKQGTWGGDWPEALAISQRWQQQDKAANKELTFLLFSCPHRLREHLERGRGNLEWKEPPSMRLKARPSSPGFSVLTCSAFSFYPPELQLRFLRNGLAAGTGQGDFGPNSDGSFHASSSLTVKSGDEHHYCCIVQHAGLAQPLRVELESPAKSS
Chain of GST-tagged human FcRn (human; Schistosoma japonicum) (P61769 21-119, chain 2 of 2, further chain): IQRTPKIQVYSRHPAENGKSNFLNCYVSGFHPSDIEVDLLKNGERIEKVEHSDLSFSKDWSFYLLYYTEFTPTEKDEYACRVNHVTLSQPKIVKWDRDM

B1: h9C12 IgG3(b)-Q311R/N434W/M428E/R435H (antibody, part only; not given: variable domains, not shown: another chain or arm of the molecule)
constant: ASTKGPSVFPLAPCSRSTSGGTAALGCLVKDYFPEPVTVSWNSGALTSGVHTFPAVLQSSGLYSLSSVVTVPSSSLGTQTYTCNVNHKPSNTKVDKRVELKTPLGDTTHTCPRCPEPKSCDTPPPCPRCPEPKSCDTPPPCPRCPEPKSCDTPPPCPRCPAPELLGGPSVFLFPPKPKDTLMISRTPEVTCVVVDVSHEDPEVQFKWYVDGVEVHNAKTKPREEQYNSTFRVVSVLTVLHRDWLNGKEYKCKVSNKALPAPIEKTISKTKGQPREPQVYTLPPSREEMTKNQVSLTCLVKGFYPSDIAVEWESSGQPENNYNTTPPMLDSDGSFFLYSKLTVDKSRWQQGNIFSCSVEHEALHWHFTQKSLSLSPGK
B1 was tested, and the Fold change from WT (ELISA) pH 6.0 was 3 fold.
